From article PMC6581175, “Versatile Oxidase and Dehydrogenase Activities of Bacterial Pyranose 2-Oxidase Facilitate Redox Cycling with Manganese Peroxidase In Vitro” (Applied and Environmental Microbiology, 2019)
One block for each molecule: values may come before it.

Assays:
[1] = test system: CCn1c(=N[N]c2sc3cc(S(=O)(=O)O)ccc3[n+]2CC)sc2cc(S(=O)(=O)O)ccc21; assay: purified protein; conditions: pH 7.5; 30.0 °C
KaPOx = biological target: T1, KaPOx (Kitasatospora aureofaciens, UniProt A0A1E7NAU4); assay: spectrophotometric electron acceptor reduction; conditions: apparent, 30 mM D-glucose, nitrogen-bubbled solutions, 50 mM Britton-Robinson pH 7.5, 30°C, kcat per dimer
T1 construct: gene HS99_0024835
T1 sequence (A0A1E7NAU4 1-545): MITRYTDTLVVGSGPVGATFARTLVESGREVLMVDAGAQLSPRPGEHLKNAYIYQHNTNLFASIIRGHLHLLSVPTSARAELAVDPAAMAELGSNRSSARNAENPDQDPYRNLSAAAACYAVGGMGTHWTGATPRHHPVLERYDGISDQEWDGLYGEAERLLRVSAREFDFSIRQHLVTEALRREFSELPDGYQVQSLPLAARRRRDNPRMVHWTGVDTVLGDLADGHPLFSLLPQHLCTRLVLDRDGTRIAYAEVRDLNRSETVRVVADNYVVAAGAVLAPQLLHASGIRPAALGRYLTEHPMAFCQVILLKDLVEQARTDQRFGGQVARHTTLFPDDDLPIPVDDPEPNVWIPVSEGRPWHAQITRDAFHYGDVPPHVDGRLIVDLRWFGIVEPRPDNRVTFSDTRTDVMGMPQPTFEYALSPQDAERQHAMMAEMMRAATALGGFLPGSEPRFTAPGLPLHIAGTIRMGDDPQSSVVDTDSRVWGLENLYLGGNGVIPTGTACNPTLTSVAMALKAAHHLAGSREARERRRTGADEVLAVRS

purified protein [2] = substrate: O=C1O[C@H](CO)[C@@H](O)[C@H](O)[C@H]1O; assay: purified protein; assay type: biochemical, Kitasatospora aureofaciens; conditions: apparent, electron donor, O2 at air saturation (about 250 uM), 50 mM Britton-Robinson pH 7.5, 30°C, kcat per dimer
purified protein [3] = substrate: O=C1C=CC(=O)C=C1; assay: purified protein; conditions: apparent, electron acceptor, 30 mM D-glucose, nitrogen-bubbled solutions, 50 mM Britton-Robinson pH 7.5, 30°C, kcat per dimer
purified protein [4] = substrate: O=C1C(Cl)=CC(=Nc2ccc(O)cc2)C=C1Cl; assay: purified protein; conditions: apparent, electron acceptor, 30 mM D-glucose, nitrogen-bubbled solutions, 50 mM Britton-Robinson pH 7.5, 30°C, kcat per dimer

Molecule: KaPOx (Kitasatospora aureofaciens)
Km [1]: 40 ± 0 µM
Vmax [1]: 6.1 µmol/min/mg
kcat/Km [1]: 309000 M⁻¹ s⁻¹

Km (KaPOx): 1030 ± 1000 µM
Molecule: Ferrocenium ion

B1: KaPOx (Kitasatospora aureofaciens) (protein)
chain: T1 sequence (A0A1E7NAU4 1-545)
notes: full-length synthetic gene, C-terminal 6xHis kept, N-terminal T7 tag excluded, pET-21b(+), E. coli T7 Express; no signal peptide predicted
Km (purified protein [2]): 28700 ± 2400 µM
Vmax (purified protein [2]): 0.8 µmol/min/mg
kcat (purified protein [2]): 1.8 ± 0.1 s⁻¹
kcat/Km (purified protein [2]): 60 M⁻¹ s⁻¹
Km (purified protein [3]): 80 ± 100 µM
Vmax (purified protein [3]): 12.2 µmol/min/mg
kcat (purified protein [3]): 24.9 ± 7.1 s⁻¹
kcat/Km (purified protein [3]): 311000 M⁻¹ s⁻¹
Km (purified protein [4]): 30 ± 0 µM
Vmax (purified protein [4]): 4.4 µmol/min/mg
kcat (purified protein [4]): 9.4 ± 1.1 s⁻¹
kcat/Km (purified protein [4]): 313000 M⁻¹ s⁻¹
